Reference: patent US20110287011A1 (ONCOMED PHARMACEUTICALS, published 2011)

Experiments:
Assay in all cases: FACS on HEK293 cells transfected with the DDR1 variant
[1] = biological target: FLAG-tagged human DDR1 E113Q variant (human, UniProt Q08345 19-913)
Description: (§1) Full length cDNA encoding FLAG-tagged human DDR1 variants were transiently transfected into HEK293 cells using standard procedures as known to one skilled in the art. To determine the capacity of antibodies to bind the DDR1 variants, antibodies were incubated with HEK293 cells transfected with plasmid encoding either wild type DDR1 or one of the point mutation variants. All cells were co-transfected with plasmid encoding GFP. The cells were analyzed by FACS as described herein for binding of the antibodies to wild type DDR1 and to DDR1 variants.

[2] = biological target: FLAG-tagged human DDR1 L110A variant (human, UniProt Q08345 19-913)
Description: as §1

[3] = biological target: FLAG-tagged human DDR1 D68A variant (human, UniProt Q08345 19-913)
Description: as §1

[4] = biological target: FLAG-tagged human DDR1 S175A variant (human, UniProt Q08345 19-913)
Description: as §1

[5] = biological target: FLAG-tagged human DDR1 R105A variant (human, UniProt Q08345 19-913)
Description: as §1

Measured: binding result

Chain of FLAG-tagged human DDR1 D68A variant (Q08345 other isoform, or with tags, fused parts or gaps D68A D68A limits assumed): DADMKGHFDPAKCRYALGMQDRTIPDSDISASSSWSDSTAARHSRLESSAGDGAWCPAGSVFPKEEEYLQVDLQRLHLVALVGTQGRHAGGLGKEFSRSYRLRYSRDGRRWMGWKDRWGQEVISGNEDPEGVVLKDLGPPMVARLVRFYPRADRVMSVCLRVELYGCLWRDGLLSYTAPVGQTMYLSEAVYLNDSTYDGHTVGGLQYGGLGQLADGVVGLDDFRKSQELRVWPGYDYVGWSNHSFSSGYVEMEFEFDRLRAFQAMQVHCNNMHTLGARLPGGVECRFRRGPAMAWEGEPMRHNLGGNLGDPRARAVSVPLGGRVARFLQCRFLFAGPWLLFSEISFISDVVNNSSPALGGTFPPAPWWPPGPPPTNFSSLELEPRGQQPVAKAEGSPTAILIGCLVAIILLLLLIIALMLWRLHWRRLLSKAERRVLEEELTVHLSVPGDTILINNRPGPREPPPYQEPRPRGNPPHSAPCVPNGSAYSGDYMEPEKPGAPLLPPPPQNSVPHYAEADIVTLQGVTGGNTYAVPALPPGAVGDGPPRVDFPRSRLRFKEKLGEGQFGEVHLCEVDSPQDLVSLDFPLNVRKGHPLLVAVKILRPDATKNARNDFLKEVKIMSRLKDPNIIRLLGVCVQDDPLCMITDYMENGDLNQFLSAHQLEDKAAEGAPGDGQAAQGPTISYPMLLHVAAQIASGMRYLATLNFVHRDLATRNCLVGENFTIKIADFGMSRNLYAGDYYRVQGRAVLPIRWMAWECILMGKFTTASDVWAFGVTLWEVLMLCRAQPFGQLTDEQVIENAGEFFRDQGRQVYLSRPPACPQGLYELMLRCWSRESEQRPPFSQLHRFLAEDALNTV
Chain of FLAG-tagged human DDR1 R105A variant (Q08345 other isoform, or with tags, fused parts or gaps R105A R105A limits assumed): as the sequence (Q08345 other isoform, or with tags, fused parts or gaps D68A D68A limits assumed) above, with A50D, R87A counted along it
Chain of FLAG-tagged human DDR1 E113Q variant (Q08345 other isoform, or with tags, fused parts or gaps E113Q E113Q limits assumed): as the sequence (Q08345 other isoform, or with tags, fused parts or gaps D68A D68A limits assumed) above, with A50D, E95Q counted along it
Chain of FLAG-tagged human DDR1 L110A variant (Q08345 other isoform, or with tags, fused parts or gaps L110A L110A limits assumed): as the sequence (Q08345 other isoform, or with tags, fused parts or gaps D68A D68A limits assumed) above, with A50D, L92A counted along it
Chain of FLAG-tagged human DDR1 S175A variant (Q08345 other isoform, or with tags, fused parts or gaps S175A S175A limits assumed): as the sequence (Q08345 other isoform, or with tags, fused parts or gaps D68A D68A limits assumed) above, with A50D, S157A counted along it

B1: antibody 20M102 (antibody, mouse IgG1, kappa, V domains shown)
VH: EVQLQQSGSELVKPGASVKMSCKASGYTFTDYFMKWVKQSHGKSLEWIGDINPNNGDTFYIQKFKGKATLTVDKSSSTAYMQLNSLTSEDSAVYYCSRDLAYWGQGTLVAVSS
VL: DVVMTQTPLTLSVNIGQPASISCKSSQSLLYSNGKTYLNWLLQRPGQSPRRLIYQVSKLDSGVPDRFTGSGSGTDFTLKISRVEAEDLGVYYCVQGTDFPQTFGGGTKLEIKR
notes: Mouse monoclonal IgG purified from hybridoma supernatant; also called anti-DDR1 antibody 20M102; hybridoma ATCC PTA-10051
binds: [1] | [2] | [3] | [4] | [5]
